This data set deals with Saccharomyces cerevisiae. Put plainly: protein stability index of tFT-peptide fusion (C-terminal peptide) (PSI (0-1 scale)); higher = more stable (slower turnover). As to conditions: temperature: 30 C. How it is done: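 MPS profiling in S. cerevisiae of the yeast C-terminome library: the last 12 aa of each annotated ORF are fused to the C-terminus of a sfGFP-mCherry timer, after a GGGS linker. Cells are FACS-sorted into 8 mCherry/sfGFP bins and deep-sequenced. PSI runs from 0 (unstable) to 1 (stable); wild type and das1Δ backgrounds, two technical replicates each.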

The mark [1] stands for this setting: genetic background: das1 deletion.

± gives the standard deviation of the averaged measurements.

“VFEISNKELFLT [YIL029W-A C-terminal 12 aa]” yielded a protein stability index under setting [1] of 0.6922 ± 0.0023 and a protein stability index (genetic background: wild type) of 0.452 ± 0.016.
Consider VFLKKDTDIYIC [YML084W C-terminal 12 aa], for which the protein stability index reads like this: under setting [1], 0.63 ± 0.019; (genetic background: wild type) 0.612 ± 0.03.
The corresponding values for VFRIVARGYVGW [BBC1 C-terminal 12 aa] are 0.701 ± 0.04 and 0.691 ± 0.046.
The corresponding values for VFVTGILSTVYI [AIT1 C-terminal 12 aa] are 0.6444 ± 0.0011 and 0.6108 ± 0.0049.
Turning to VGELDIKFDLKF [RTF1 C-terminal 12 aa], the protein stability index by setting is: under setting [1], 0.733 ± 0.018; (genetic background: wild type) 0.696 ± 0.0088.
For VGLDDLKKLVTK [PCF11 C-terminal 12 aa], in that order: 0.713 ± 0.03 and 0.744 ± 0.099.
VIAQIDELFEGY [THG1 C-terminal 12 aa]: the protein stability index under setting [1] turned out to be 0.726 ± 0.0083 and the protein stability index (genetic background: wild type) is 0.711 ± 0.019.
For VIFLFLRTIHFL [PGC1 C-terminal 12 aa], in that order: 0.501 ± 0.015 and 0.142 ± 0.0083.
In the case of VIGEKGITDSSD [DMC1 C-terminal 12 aa], the protein stability index reads like this: under setting [1], 0.733 ± 0.023; (genetic background: wild type) 0.721 ± 0.018.
For VIWDNNTKFCWF [YGR111W C-terminal 12 aa], in that order: 0.742 ± 0.0097 and 0.73063 ± 0.00022.
The corresponding values for VIWEKVYESKTK [LSM8 C-terminal 12 aa] are 0.724 ± 0.018 and 0.761 ± 0.057.
For VIWQERETTANK [EMI1 C-terminal 12 aa], in that order: 0.724 ± 0.033 and 0.676 ± 0.038.
Turning to VKHKVVSVDEDN [MPM1 C-terminal 12 aa], the protein stability index runs as follows: under setting [1], 0.681 ± 0.014; (genetic background: wild type) 0.6529 ± 0.001.
As for VKKEPLNEESKP [MIA40 C-terminal 12 aa], the protein stability index is, setting by setting: under setting [1], 0.7041 ± 0.0021; (genetic background: wild type) 0.679 ± 0.026.
The corresponding values for VKNSPRLLLFFI [YOL160W C-terminal 12 aa] are 0.673 ± 0.041 and 0.53 ± 0.011.
Regarding “VKSNPQPAYTFQ [YFR012W-A C-terminal 12 aa]”, the protein stability index by setting is: under setting [1], 0.679 ± 0.02; (genetic background: wild type) 0.6969 ± 2.8e-05.
Take VLDDAEETKESH [ATP14 C-terminal 12 aa]: the protein stability index under setting [1] is 0.689 ± 0.024 and the protein stability index (genetic background: wild type) is 0.67 ± 0.023.
In the case of VLERVSRGAGSH [COF1 C-terminal 12 aa], the protein stability index runs as follows: under setting [1], 0.7039 ± 0.0025; (genetic background: wild type) 0.688 ± 0.036.
For VLLTAYKKLLTK [KEG1 C-terminal 12 aa], in that order: 0.685 ± 0.021 and 0.62079 ± 0.00024.
For VLMKQLDEIIRK [BUD14 C-terminal 12 aa], in that order: 0.6982 ± 0.0046 and 0.704 ± 0.058.
Take VLPTWADKVINE [SPE4 C-terminal 12 aa]: the protein stability index by setting is: under setting [1], 0.69 ± 0.0095; (genetic background: wild type) 0.677 ± 0.012.
The corresponding values for VMDDIISELTNE [KRE28 C-terminal 12 aa] are 0.713 ± 0.019 and 0.687 ± 0.046.
Take VNQKQPPPQSYV [YEL067C C-terminal 12 aa]: the protein stability index was determined as 0.7165 ± 0.00072 under setting [1] and 0.7048 ± 0.00045 (genetic background: wild type).
The corresponding values for VPLESTKRQPLH [YBR053C C-terminal 12 aa] are 0.719 ± 0.0097 and 0.704 ± 0.026.
The corresponding values for VPPRSASASSQR [SPC97 C-terminal 12 aa] are 0.689 ± 0.018 and 0.684 ± 0.015.
The corresponding values for VPQEDDRLHKLK [AIM3 C-terminal 12 aa] are 0.701 ± 0.016 and 0.765 ± 0.039.
VQLIDGPEEMHR [SHO1 C-terminal 12 aa] had a protein stability index under setting [1] of 0.726 ± 0.009 and a protein stability index (genetic background: wild type) of 0.663 ± 0.008.
The corresponding values for VQWSRPRRGDVL [LAM6 C-terminal 12 aa] are 0.7079 ± 0.0014 and 0.703 ± 0.051.
Take VRGRKSRNTSRV [REP2 C-terminal 12 aa]: the protein stability index runs as follows: under setting [1], 0.711 ± 0.013; (genetic background: wild type) 0.755 ± 0.035.
VSDAMFDQGDVF [GDH1 C-terminal 12 aa]: the protein stability index turned out to be 0.72756 ± 0.0006 under setting [1] and 0.707 ± 0.012 (genetic background: wild type).
Turning to VSKLNGFSFTDI [ASE1 C-terminal 12 aa], the protein stability index is, setting by setting: under setting [1], 0.669 ± 0.0088; (genetic background: wild type) 0.674 ± 0.016.
The corresponding values for “VSYFSIFSLFFF [YKL096C-B C-terminal 12 aa]” are 0.667 ± 0.047 and 0.603 ± 0.016.
In the case of VVDLIMEYLQDT [YDL057W C-terminal 12 aa], the protein stability index reads like this: under setting [1], 0.699 ± 0.013; (genetic background: wild type) 0.741 ± 0.078.
The corresponding values for VVFLSVLKRNDL [YOL099C C-terminal 12 aa] are 0.685 ± 0.031 and 0.772 ± 0.11.
For the sequence VVPVLMGNMKVA [YEL073C C-terminal 12 aa], the protein stability index under setting [1] amounted to 0.69 ± 0.01 and the protein stability index (genetic background: wild type) was 0.634 ± 0.053.
For VWTLELSVIGVQ [WHI2 C-terminal 12 aa], in that order: 0.542 ± 0.011 and 0.572 ± 0.011.
In the case of WAINESEGYGFR [HUL4 C-terminal 12 aa], the protein stability index under setting [1] worked out at 0.727 ± 0.016 and the protein stability index (genetic background: wild type) was 0.708 ± 0.051.
For WAREQQKRQLSL [KAP95 C-terminal 12 aa], in that order: 0.725 ± 0.0096 and 0.729 ± 0.019.
As for WKEVLKFPKSFN [HXT15 C-terminal 12 aa], the protein stability index runs as follows: under setting [1], 0.724 ± 0.0077; (genetic background: wild type) 0.714 ± 0.031.
On to WKKFIPKTWLSS [CQD2 C-terminal 12 aa], for which the protein stability index came out at 0.7 ± 0.0086 under setting [1] and 0.4878 ± 0.0047 (genetic background: wild type).
Consider WKKFLKFSKNSD [HXT13 C-terminal 12 aa], for which the protein stability index was 0.7176 ± 0.0052 under setting [1] and 0.685 ± 0.039 (genetic background: wild type).
For WKLLDDSELGWY [RGT1 C-terminal 12 aa], in that order: 0.836 ± 0.0089 and 0.804 ± 0.052.
Turning to WLKDQIIGEMTV [CAL4 C-terminal 12 aa], the protein stability index was found to be 0.696 ± 0.036 under setting [1] and 0.678 ± 0.025 (genetic background: wild type).
Take WPVTKPEDTKDN [ZWF1 C-terminal 12 aa]: the protein stability index by setting is: under setting [1], 0.699 ± 0.013; (genetic background: wild type) 0.67 ± 0.018.
As to WRPQQPGQIEQA [YLR101C C-terminal 12 aa], the protein stability index runs as follows: under setting [1], 0.723 ± 0.03; (genetic background: wild type) 0.6668 ± 0.00094.
The corresponding values for WTKDLGCWSLYK [HIR1 C-terminal 12 aa] are 0.716 ± 0.025 and 0.6994 ± 0.0037.
For the sequence WTNYLEKESEKD [RUD3 C-terminal 12 aa], the protein stability index reads like this: under setting [1], 0.711 ± 0.04; (genetic background: wild type) 0.693 ± 0.045.
For the sequence YAEGSLVKTEKL [FAA2 C-terminal 12 aa], the protein stability index reads like this: under setting [1], 0.70242 ± 0.0001; (genetic background: wild type) 0.698 ± 0.016.
The corresponding values for YCFAKNDLFFNN [POM152 C-terminal 12 aa] are 0.743 ± 0.014 and 0.716 ± 0.011.
For YCPELGKTECFD [FMP30 C-terminal 12 aa], the protein stability index reads like this: under setting [1], 0.691 ± 0.0061; (genetic background: wild type) 0.69 ± 0.0088.
For YDANGSSSTIKR [MAM3 C-terminal 12 aa], in that order: 0.736 ± 0.011 and 0.7007 ± 0.00097.
In the case of YDEIVPLMSDEE [ECM21 C-terminal 12 aa], the protein stability index runs as follows: under setting [1], 0.7035 ± 0.0035; (genetic background: wild type) 0.716 ± 0.057.
On to YDLQALFKYFFS [ADY3 C-terminal 12 aa], for which the protein stability index under setting [1] was 0.691 ± 0.011 and the protein stability index (genetic background: wild type) was found to be 0.64 ± 0.022.
On to YFKVFDWCKQKR [CLB6 C-terminal 12 aa], for which the protein stability index was determined as 0.681 ± 0.018 under setting [1] and 0.684 ± 0.043 (genetic background: wild type).
For YISDHIWKTSSH [YOR302W C-terminal 12 aa], in that order: 0.743 ± 0.04 and 0.698 ± 0.035.
For YKNRPNKEKDTL [STB6 C-terminal 12 aa], in that order: 0.693 ± 0.021 and 0.688 ± 0.047.
For the sequence YKSKRNTPTMLS [ISU1 C-terminal 12 aa], the protein stability index came to 0.714 ± 0.027 under setting [1] and 0.653 ± 0.026 (genetic background: wild type).
In turn, “YLARRKPSIELR [YPR170W-B C-terminal 12 aa]” yielded a protein stability index under setting [1] of 0.716 ± 0.03 and a protein stability index (genetic background: wild type) of 0.7212 ± 0.0052.
Consider YLKNFFVKQKVV [ERP5 C-terminal 12 aa], for which the protein stability index was found to be 0.549 ± 0.0073 under setting [1] and 0.16 ± 0.026 (genetic background: wild type).
As for YLLENEPKDSFA [DCP1 C-terminal 12 aa], the protein stability index by setting is: under setting [1], 0.703 ± 0.032; (genetic background: wild type) 0.731 ± 0.029.
The corresponding values for YLNCTEREALRP [AEP1 C-terminal 12 aa] are 0.6794 ± 0.0038 and 0.752 ± 0.076.
Turning to “YNIKRVLGVVYC [YAL067W-A C-terminal 12 aa]”, the protein stability index is, setting by setting: under setting [1], 0.345 ± 0.031; (genetic background: wild type) 0.362 ± 0.0077.
In the case of YNPGLSMDFLTA [BCD1 C-terminal 12 aa], the protein stability index is, setting by setting: under setting [1], 0.6899 ± 0.0018; (genetic background: wild type) 0.714 ± 0.014.
For YNSLKKGASKSK [CNL1 C-terminal 12 aa], in that order: 0.714 ± 0.021 and 0.74 ± 0.071.
On to YNTTSITNSTSW [SRL1 C-terminal 12 aa], for which the protein stability index turned out to be 0.711 ± 0.016 under setting [1] and 0.722 ± 0.09 (genetic background: wild type).
As for YPGAKTLTYTSR [CMI8 C-terminal 12 aa], the protein stability index reads like this: under setting [1], 0.703 ± 0.013; (genetic background: wild type) 0.673 ± 0.01.
Take YPTFDDNNFFAL [RFA2 C-terminal 12 aa]: the protein stability index is 0.732 ± 0.012 under setting [1] and 0.717 ± 0.0086 (genetic background: wild type).

Source of the values: the supplement of paper PMC10724198.
